Assay results as given in paper PMC6637871, “Structural and functional insights into the modulation of the activity of a flax cytokinin oxidase by flax rust effector AvrL567‐A” (Molecular Plant Pathology, 2018).

B1: LuCKX1.1 (Linum usitatissimum) (protein)
chain: LQGSIDYSTLAADFTGKDFGGVYSSNPLALIRPSGADDVARVLKSACRSSNLTVAARGNGHSINGQAMADGGIVLDMRSTEGNHFKILRINGGDHTAYADVSGGALWEDILMRCVSEYGLAPRSWTDYLRLTVGGTLSNAGVSGQAFRYGPQSSNVTELDVVTGKGDFLTCSPTHNSDLFFGALGGLGQFGVITRARIPLEPAPDMVRWIRMVYAEFEDFSRDAEWLVTQPEKESFDYVEGFAFVNSDSPADGWPSVPLYPNHMMEPTTPIHSGHQLLYCLELALHFNHSNSSSTVDSVVKRLIGGLRYMKGFKYEVDLSYVEFVMRVKRVEEDARAHGMWDAPHPWLNLFVSKADIAEFDRLIFKGLLHDGVGGPMLVYPLLRSKWDSRSSVVLPEGEDEIFYIVALLRSNPPYPKGPSVDKLVSQNDKIIQSCIQHGLGFKLYLPHYQSQHDWRRHFGDQWSKFVQLKLAFDPMAVLAPGQKIFTRTTK
notes: crystal model residues 44-532, two molecules per asymmetric unit; FAD covalently linked to His104
B2: AvrL567-A protein (residues 24-150), purified (natural protein)
chain: MEHVPAELTRVSEGYTRFYRSPTASVILSGLVKVKWDNEQMTMPLFKWIGGEQAEELHFCVHIAHSSGPKLNRARSLGTVNSNMDQHWAQAQRNSGATRRTIEGFHLFENDIPNFPDYIKIKLVPKT

Columns and labels:
purified protein [1] = substrate: C/C(=C\CNc1ncnc2[nH]cnc12)CO; test: purified protein; conditions: 0.5 mM DCPIP as electron acceptor, 1.6 µM LuCKX1.1, McIlvaine buffer pH 7.5, no AvrL567-A
purified protein [2] = substrate: CC(C)=CCNc1ncnc2nc[nH]c12; test: purified protein; assay type: biochemical, Linum usitatissimum; conditions: 0.5 mM DCPIP as electron acceptor, 1.6 µM LuCKX1.1, McIlvaine buffer pH 7.5, no AvrL567-A
[3] = molecular target: LuCKX1.1 protein (residues 44-534), purified (flax (Linum usitatissimum))

Row | Binder | Km (purified protein [1]) [µM] | kcat (purified protein [1]) [s⁻¹] | Km (purified protein [2]) [µM] | kcat (purified protein [2]) [s⁻¹] | turnover rate (Kcat) of LuCKX1.1 towards 2iP in the DCPIP kinetic assay, with 1.6 uM AvrL567-A against without it [3] [%] | turnover rate (Kcat) of LuCKX1.1 towards tZ in the DCPIP kinetic assay, with 1.6 uM AvrL567-A against without it [3] [%]
1 | B1 | 64 | 0.69 | 44 | 5.4 | – | –
2 | B2 | – | – | – | – | 50 | 130
